Experimental data as given in US20230312724A1 (KADMON, published 2023).

T1: human B7-H4-his (human, UniProt Q7Z7D3 25-259)
T1 construct: also called hB7-H4-his; hB7-H4 his; not shown: his tag
T1 sequence: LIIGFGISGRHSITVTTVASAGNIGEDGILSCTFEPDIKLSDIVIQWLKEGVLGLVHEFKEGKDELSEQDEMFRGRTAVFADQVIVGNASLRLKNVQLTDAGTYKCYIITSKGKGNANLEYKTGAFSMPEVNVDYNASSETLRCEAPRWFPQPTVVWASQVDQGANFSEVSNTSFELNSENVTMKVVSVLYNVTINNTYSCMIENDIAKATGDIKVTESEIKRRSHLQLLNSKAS

T2: hB7-H4 (soluble human B7-H4, construct not named) (human, UniProt Q7Z7D3 25-259, limits assumed)
T2 construct: also called soluble hB7-H4
T2 sequence: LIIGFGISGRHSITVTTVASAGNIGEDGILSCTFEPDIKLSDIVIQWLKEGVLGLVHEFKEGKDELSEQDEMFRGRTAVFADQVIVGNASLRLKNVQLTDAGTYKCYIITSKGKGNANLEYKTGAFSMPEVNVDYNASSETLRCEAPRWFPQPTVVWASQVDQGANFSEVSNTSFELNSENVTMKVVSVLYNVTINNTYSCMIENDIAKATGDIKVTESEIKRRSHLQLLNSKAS

T3: mB7-H4 (soluble mouse B7-H4, construct not named) (mouse, UniProt Q7TSP5 25-257, limits assumed)
T3 sequence: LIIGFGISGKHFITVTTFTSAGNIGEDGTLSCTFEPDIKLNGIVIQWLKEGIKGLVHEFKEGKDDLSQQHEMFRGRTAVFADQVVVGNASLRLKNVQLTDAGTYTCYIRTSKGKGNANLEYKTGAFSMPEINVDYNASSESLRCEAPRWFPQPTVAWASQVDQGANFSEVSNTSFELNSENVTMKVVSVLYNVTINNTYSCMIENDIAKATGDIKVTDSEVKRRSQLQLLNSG

T4: mouse B7-H4 expressed on cells (mouse, UniProt Q7TSP5 25-257)
T4 construct: also called cellular mB7-H4; mB7-H4/CT26
T4 sequence: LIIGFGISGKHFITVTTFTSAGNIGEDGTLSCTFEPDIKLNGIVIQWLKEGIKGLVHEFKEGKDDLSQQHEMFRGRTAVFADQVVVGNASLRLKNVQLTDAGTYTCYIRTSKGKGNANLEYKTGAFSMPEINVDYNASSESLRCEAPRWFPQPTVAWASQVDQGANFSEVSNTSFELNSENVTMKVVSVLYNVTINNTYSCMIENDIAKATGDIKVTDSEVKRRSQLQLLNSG

T5: mouse B7-H4-his (mouse, UniProt Q7TSP5 25-257)
T5 construct: also called mB7-H4-his; mB7-H4-His; not shown: his tag
T5 sequence: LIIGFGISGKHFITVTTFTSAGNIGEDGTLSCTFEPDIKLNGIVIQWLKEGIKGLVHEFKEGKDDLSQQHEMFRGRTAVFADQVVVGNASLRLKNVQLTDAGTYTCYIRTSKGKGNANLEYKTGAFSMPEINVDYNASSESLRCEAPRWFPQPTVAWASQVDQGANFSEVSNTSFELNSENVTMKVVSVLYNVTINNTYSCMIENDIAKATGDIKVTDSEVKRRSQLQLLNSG


What was measured:
[1] = target: T6, human B7-H4-Fc (human); experiment: SPR (Biacore)
T6 construct: also called hB7-H4-Fc; hB7-H4 Fc
In short: (§1)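 Ligands (human B7-H4-Fc, human B7-H4-his, mouse B7-H4-Fc) were amine-coupled to CM5 chips at 50-100 RU. Analyte was injected at 100 nM to 0.1 nM in HBS-EP, pH 7.4, at 25 °C, with 180 s association and 1000 or 1200 s dissociation. Kinetics were fitted to a 1:1 Langmuir model.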

[2] = target: T1, human B7-H4-his; experiment: SPR (Biacore)
In short: as §1

[3] = target: T7, mouse B7-H4-Fc (mouse; human); experiment: SPR (Biacore)
T7 construct: also called mB7-H4-Fc; mB7-H4-hFc
In short: as §1

[4] = target: T2, hB7-H4 (soluble human B7-H4, construct …); experiment: ELISA, hB7-H4
In short: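 Human or mouse B7-H4-Fc (or his-tagged), about 1-2 μg/ml, was coated overnight at 4° C and blocked with 3% PBS+milk. Serially diluted antibodies bound for 1-1.5 h at RT, detected with HRP-conjugated anti-hFab and TMB, stopped with 1N H₂SO₄. EC50 came from OD450 versus antibody concentration curves.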

[5] = target: T2, hB7-H4 (soluble human B7-H4, construct …); experiment: SPR (Biacore)
[6] = target: T3, mB7-H4 (soluble mouse B7-H4, construct …); experiment: ELISA, mB7-H4
Experimental: (§2) About 1-2 μg/ml of human or mouse B7-H4-Fc (or his-tagged) was immobilized on ELISA plates (Immuno 2HB, Thermo scientific, cat #3455) at 4° C. overnight. After blocking the plates with 3% PBS+milk, serial diluted antibodies were added to the blocked plates and incubated at RT for 1-1.5 h. After washing the plates with PBS-T (0.05%), horse radish peroxidase (HRP)-conjugated antibody targeting the hFab was added to the plate. Signals were developed by adding 3,3′,5,5′-Tetramethylbenzidine (TMB (followed 1N of H₂SO₄ to stop the reaction. The OD at 450 nm was read by ELISA plate reader (Infinite M1000 from TECAN). GraphPad from Prism was used to plot OD450 vs. antibody concentration curve and to calculate the EC50 values.

[7] = target: T4, mouse B7-H4 expressed on cells; experiment: flow cytometry, mB7-H4/CT26 cells
[8] = target: T6, human B7-H4-Fc; experiment: ELISA on coated hB7-H4-Fc
Experimental: as §2

[9] = target: T7, mouse B7-H4-Fc; experiment: ELISA on coated mB7-H4-Fc
Experimental: as §2

[10] = target: T1, human B7-H4-his; experiment: ELISA on coated hB7-H4-his
Experimental: as §2

[11] = target: T5, mouse B7-H4-his; experiment: ELISA on coated mB7-H4-his
Experimental: as §2

[12] = target: T8, IgV domain of mouse B7-H4-Fc (mouse; human); experiment: ELISA, coated mB7-H4 IgV domain
T8 construct: also called mB7-H4 IgV domain

[13] = target: T9, IgC domain of human B7-H4-Fc (human); experiment: ELISA, coated hB7-H4 IgC domain
T9 construct: also called hB7-H4 IgC domain

[14] = target: T10, IgC domain of mouse B7-H4-Fc (mouse; human); experiment: ELISA, coated mB7-H4 IgC domain
T10 construct: also called mB7-H4 IgC domain

[15] = target: T11, IgV domain of human B7-H4-Fc (human); experiment: ELISA on coated IgV domain of hB7-H4
T11 construct: also called hB7-H4 IgV domain

[16] = target: T8, IgV domain of mouse B7-H4-Fc; experiment: ELISA on coated IgV domain of mB7-H4
[17] = target: T3, mB7-H4 (soluble mouse B7-H4, construct …); experiment: SPR (Biacore); values equal to Table 11

T6 sequence (chain, as listed by the source): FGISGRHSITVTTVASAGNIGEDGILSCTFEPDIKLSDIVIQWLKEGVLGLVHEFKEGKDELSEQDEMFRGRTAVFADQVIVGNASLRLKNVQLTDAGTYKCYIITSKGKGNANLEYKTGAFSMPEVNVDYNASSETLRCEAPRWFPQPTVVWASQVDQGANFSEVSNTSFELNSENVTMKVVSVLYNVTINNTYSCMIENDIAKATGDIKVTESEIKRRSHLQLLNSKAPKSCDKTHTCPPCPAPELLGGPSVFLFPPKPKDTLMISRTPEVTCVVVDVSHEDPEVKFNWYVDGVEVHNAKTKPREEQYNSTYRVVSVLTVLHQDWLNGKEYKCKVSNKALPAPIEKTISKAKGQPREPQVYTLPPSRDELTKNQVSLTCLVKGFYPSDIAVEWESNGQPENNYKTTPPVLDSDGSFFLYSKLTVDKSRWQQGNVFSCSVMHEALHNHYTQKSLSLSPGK
T8 sequence (chain, as listed by the source): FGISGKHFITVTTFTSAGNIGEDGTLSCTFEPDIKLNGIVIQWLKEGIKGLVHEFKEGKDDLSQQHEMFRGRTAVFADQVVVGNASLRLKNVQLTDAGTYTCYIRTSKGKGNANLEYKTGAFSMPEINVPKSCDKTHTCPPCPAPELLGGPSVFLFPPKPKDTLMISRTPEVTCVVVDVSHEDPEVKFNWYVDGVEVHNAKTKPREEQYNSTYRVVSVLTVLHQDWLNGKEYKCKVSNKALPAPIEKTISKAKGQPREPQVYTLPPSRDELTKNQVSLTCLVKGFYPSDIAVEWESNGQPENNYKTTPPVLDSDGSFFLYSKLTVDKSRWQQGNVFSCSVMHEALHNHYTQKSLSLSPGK
T7 sequence (chain, as listed by the source): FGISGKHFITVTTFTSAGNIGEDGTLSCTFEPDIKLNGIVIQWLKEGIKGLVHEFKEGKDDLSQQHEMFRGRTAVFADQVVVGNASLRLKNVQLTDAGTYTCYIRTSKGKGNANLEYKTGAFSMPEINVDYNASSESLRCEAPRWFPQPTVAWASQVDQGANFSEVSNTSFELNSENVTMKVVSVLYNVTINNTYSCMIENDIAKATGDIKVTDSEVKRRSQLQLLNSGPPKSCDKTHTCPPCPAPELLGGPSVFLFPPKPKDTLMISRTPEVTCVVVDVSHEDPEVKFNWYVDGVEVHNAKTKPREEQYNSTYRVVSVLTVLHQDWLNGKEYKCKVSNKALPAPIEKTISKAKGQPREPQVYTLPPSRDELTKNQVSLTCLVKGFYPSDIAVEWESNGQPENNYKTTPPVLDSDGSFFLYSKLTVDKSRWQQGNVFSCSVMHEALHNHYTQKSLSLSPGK
T9 sequence (chain, as listed by the source): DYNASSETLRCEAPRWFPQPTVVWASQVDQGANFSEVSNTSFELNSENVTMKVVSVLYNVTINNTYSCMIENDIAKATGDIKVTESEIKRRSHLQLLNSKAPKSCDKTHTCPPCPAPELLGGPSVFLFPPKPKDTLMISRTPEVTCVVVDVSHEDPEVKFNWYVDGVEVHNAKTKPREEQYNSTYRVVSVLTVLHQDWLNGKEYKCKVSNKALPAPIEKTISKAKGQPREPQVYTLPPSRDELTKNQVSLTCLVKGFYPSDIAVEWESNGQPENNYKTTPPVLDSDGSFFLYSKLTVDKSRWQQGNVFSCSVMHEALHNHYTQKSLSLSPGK
T11 sequence (chain, as listed by the source): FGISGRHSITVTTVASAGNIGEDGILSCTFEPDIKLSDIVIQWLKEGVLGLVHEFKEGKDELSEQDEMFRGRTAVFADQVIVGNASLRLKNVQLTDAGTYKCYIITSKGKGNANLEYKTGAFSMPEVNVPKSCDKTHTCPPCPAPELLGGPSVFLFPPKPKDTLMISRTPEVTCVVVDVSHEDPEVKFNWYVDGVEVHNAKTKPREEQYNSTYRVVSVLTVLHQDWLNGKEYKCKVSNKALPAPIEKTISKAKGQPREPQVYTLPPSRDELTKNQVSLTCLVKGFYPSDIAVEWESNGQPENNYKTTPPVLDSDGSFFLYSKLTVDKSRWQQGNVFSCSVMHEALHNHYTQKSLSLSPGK
T10 sequence (chain, as listed by the source): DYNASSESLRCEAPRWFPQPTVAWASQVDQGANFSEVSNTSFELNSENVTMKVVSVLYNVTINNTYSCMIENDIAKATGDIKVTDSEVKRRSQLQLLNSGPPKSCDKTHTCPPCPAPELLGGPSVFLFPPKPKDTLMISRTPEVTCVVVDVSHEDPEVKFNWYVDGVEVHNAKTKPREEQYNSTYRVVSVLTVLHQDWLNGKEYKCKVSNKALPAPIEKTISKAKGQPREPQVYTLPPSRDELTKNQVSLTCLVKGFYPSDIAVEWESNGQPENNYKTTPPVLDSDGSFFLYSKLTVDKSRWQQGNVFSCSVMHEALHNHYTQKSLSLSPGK

| Kd [1] | Kd [2] | Kd [3] | EC50 [4] | Kd [5] | EC50 [6] | EC50 [7] | EC50 (read off the curve) [8] | EC50 (read off the curve) [9] | EC50 (read off the curve) [10] | EC50 (read off the curve) [11] | EC50 (read off the curve) [12] | binding result [13] | binding result [14] | EC50 (read off the curve) [15] | EC50 (read off the curve) [16] | Kd [17] | Binder |
| --- | --- | --- | --- | --- | --- | --- | --- | --- | --- | --- | --- | --- | --- | --- | --- | --- | --- |
| 107 pM | 35.5 pM | 51.8 pM | 60 pM | 152 pM | 51 pM | 7820 pM | ~80 pM | ~80 pM | ~100 pM | ~100 pM | ~200 pM | no binding (tested: log 1 nM (10 nM)) | no binding (tested: log 1 nM (10 nM)) | ~100 pM | ~70 pM | 152 pM | 39A11/57G8 (antibody, human IgG1, V domains shown, 39A11 VH with 57G8 VL) VH: EVQLLESGGGLVQPGGSLRLSCAASGFTFSSYGMHWVRQAPGKGLEWVASISSSSGYIYYADSVKGRFTISRDNSKNTLYLQMNSLRAEDTAVYYCARASSGMDVWGQGTTVTVSS VL: DIQMTQSPSSLSASVGDRVTITCRASQSIRSYLNWYQQKPGKAPKLLIYYASSLQSGVPSRFSGSGSGTDFTLTISSLQPEDFATYYCQQYYSTPLTFGQGTKVEIK |
| 450 pM | 110 pM | 509 pM | 106 pM | 499 pM | 139 pM | 2060 pM | ~100 pM | ~100 pM | ~200 pM | ~200 pM | ~300 pM | no binding (tested: log 1 nM (10 nM)) | no binding (tested: log 1 nM (10 nM)) | ~200 pM | ~400 pM | 499 pM | Control antibody 1 (antibody 20502 described in US20190085080A1) (antibody, V domains shown, also called (+) control Ab1; (+) Ab1) VH: QLQLQESGPGLVKPSETLSLTCTVSGGSIKSGSYYWGWIRQPPGKGLEWIGNIYYSGSTYYNPSLRSRVTISVDTSKNQFSLKLSSVTAADTAVYYCAREGSYPNQFDPWGQGTLVTVSS VL: EIVMTQSPATLSVSPGERATLSCRASQSVSSNLAWYQQKPGQAPRLLIYGASTRATGIPARFSGSGSGTEFTLTISSLQSEDFAVYYCQQYHSFPFTFGGGTKVEIK |
